Results from article PMC4323659 (Scientific Reports, 2015).

Columns and labels:
VmoLac [1] = biological target: T1, VmoLac (Vulcanisaeta moutnovskia, UniProt F0QXN6); format: biochemical
T1 construct: gene VMUT_2255; full length, 315 residues; Strep tag removed by TEV protease; E. coli BL21(DE3)-pGro7/GroEL; homodimer; bi-cobalt enzyme

VmoLac [2] = biological target: T1, VmoLac; format: binding
CCC1CCC(=O)O1 = experiment: purified protein; settings: pH 8.3; 25.0 °C
CCCC1CCC(=O)O1 = experiment: purified protein; settings: pH 8.3; 25.0 °C
CCCCC1CCCC(=O)O1 = experiment: purified protein; settings: pH 8.3; 25.0 °C
[3] = system: CCCCCC(=O)CC(=O)N[C@H]1CCOC1=O; experiment: purified protein; settings: pH 8.3; 25.0 °C
CCCCCC1CCC(=O)O1 = experiment: purified protein; settings: pH 8.3; 25.0 °C
CCCCCCC1CCCC(=O)O1 = experiment: purified protein; settings: pH 8.3; 25.0 °C
[4] = system: CCCCCCCC(=O)CC(=O)N[C@H]1CCOC1=O; experiment: purified protein; settings: pH 8.3; 25.0 °C
CCCCCCCC(=O)NC1CCOC1=O = experiment: purified protein; settings: pH 8.3; 25.0 °C
CCCCCCCC1CCCC(=O)O1 = experiment: purified protein; settings: pH 8.3; 25.0 °C
CCCCCCCCC1CCC(=O)O1 = experiment: purified protein; settings: pH 8.3; 25.0 °C

Work on `CCOP(=O)(OCC)Oc1ccc([N+](=O)[O-])cc1` [I, ethyl-paraoxon] yielded a Km (VmoLac [1]; HEPES 50 mM pH 8, NaCl 150 mM, CoCl2 0.2 mM, 25°C) of 581 ± 61 µM.

In the case of `CC(=O)Oc1ccc([N+](=O)[O-])cc1` [VIII, pNP-Acetate], the “KM (μM)” value (VmoLac [1]) is reported as 4 471 ± 593 μM.

In the case of `CCCCCCCC(=O)CC(=O)N[C@H]1CCOC1=O` [XVI, 3-oxo C10 AHL], the “X-ray crystal structure, soaked crystal, 2.0 Å” value (VmoLac [2]) is reported as “Crystals of VmoLac were soaked with 3-oxo-C10 AHL, and the lactone sits”.

“VmoLac (Vulcanisaeta moutnovskia 768-28)” showed a Km (CCC1CCC(=O)O1) of 3709 ± 497 µM, a kcat/Km (CCC1CCC(=O)O1) of 30300 ± 4600 M⁻¹ s⁻¹ and a Km (CCCC1CCC(=O)O1) of 872 ± 220 µM. The kcat/Km (CCCC1CCC(=O)O1) was 31200 ± 8600 M⁻¹ s⁻¹, the Km (CCCCC1CCCC(=O)O1) was 1220 ± 59 µM and the kcat/Km (CCCCC1CCCC(=O)O1) was 72900 ± 3700 M⁻¹ s⁻¹. For the same molecule, the Km [3] was 186 ± 37 µM, the kcat/Km [3] was 1880 ± 380 M⁻¹ s⁻¹ and the Km (CCCCCC1CCC(=O)O1) was 47 ± 11 µM. For the same molecule, the kcat/Km (CCCCCC1CCC(=O)O1) was 948000 ± 218000 M⁻¹ s⁻¹, the Km (CCCCCCC1CCCC(=O)O1) was 105 ± 24 µM and the kcat/Km (CCCCCCC1CCCC(=O)O1) was 580000 ± 132000 M⁻¹ s⁻¹. It also gave a Km [4] of 231 ± 55 µM, a kcat/Km [4] of 2050 ± 500 M⁻¹ s⁻¹ and a Km (CCCCCCCC(=O)NC1CCOC1=O) of 262 ± 54 µM. For the same molecule, the kcat/Km (CCCCCCCC(=O)NC1CCOC1=O) was 2230 ± 480 M⁻¹ s⁻¹, the K0.5 (CCCCCCCC1CCCC(=O)O1) was 839 ± 13 µM and the K0.5 (CCCCCCCCC1CCC(=O)O1) was 2.1 ± 0.6 µM. It also gave a kcat/Km (CCCCCCCCC1CCC(=O)O1) of 77700 ± 24000 M⁻¹ s⁻¹.
